Results on 11 molecules are retold here after patent publication US12617818 (UNIVERSITY OF NORTH TEXAS, dated 2026).

To fix the notation:
B2: Cardiac muscle myosin S2 synthetic peptide for GFS (MYH7), 36 residues (peptide)
peptide: KIQLEAKVKEMNERLEDEEEMNAELTAKKRKLEDEC
modifications: also: crosslinked to coverslip or silica bead through iodoacetamide-succinimidyl ester
B3: Skeletal muscle myosin S2 synthetic peptide for GFS (MYH2), 36 residues (peptide)
peptide: KIQLEAKIKEVTERAEDEEEINAELTAKKRKLEDEC
B4: Human β-cardiac myosin S2 peptide, wild-type (MYH7, 19 residues) (peptide)
peptide: EMNERLEDEEEMNAELTAK
modifications: also: in FRET: FITC on N-terminus of one monomer, terbium-DTPA-cytosine chelate on C-terminal Lys of the other
notes: Chemically synthesized; forms a coiled-coil dimer; also called human cardiac myosin S2 peptide; cardiac muscle myosin S2^pep
B6: Human smooth myosin S2 peptide (MYH11), 21 residues (peptide)
peptide: EMEARLEEEEDRGQQLQAERK
modifications: also: in FRET: FITC on N-terminus of one monomer, terbium-DTPA-cytosine chelate on C-terminal Lys of the other
notes: also called smooth muscle myosin S2^pep
B7: Smooth muscle myosin S2 synthetic peptide for GFS (MYH11), 36 residues (peptide)
peptide: KQELEEILHEMEARLEEEEDRGQQLQAERKKMAQQC
B9: Human skeletal myosin S2 peptide (MYH2), 19 residues (peptide)
peptide: EVTERAEDEEEINAELTAK
modifications: also: in FRET: FITC on N-terminus of one monomer, terbium-DTPA-cytosine chelate on C-terminal Lys of the other
notes: also called skeletal muscle myosin S2^pep

In data set [1] the target is B6. As to the kind of experiment: FRET donor lifetime of the labelled smooth muscle S2 peptide dimer titrated with the peptide. From the text:
(§1) Donor probe was conjugated to C-terminus of a myosin S2 peptide monomer and acceptor probe was conjugated to N-terminus of another myosin S2 peptide. In FRET as lanthanide of the donor probe decays, energy goes to fluorescein and it emits out energy in form of light. In addition, as the monomers come closer to each other, lifetime of donor decreases indicating a decrease in distance between donor and acceptor probe; an opposite effect is observed, with an increase in distance between the probes, […]. Lifetime of donor probe was measured in milliseconds.
The specificity of peptides were later tested on the myosin S2 of the smooth muscle (MYH11). […] Smooth muscle myosin S2^pep was treated with different concentrations of anti-S2 peptides.

The target of data set [2] is B9. Put plainly: FRET donor lifetime of 2 µM labelled S2 peptide dimer titrated with destabilizer.
Text: as §1
Like cardiac muscle myosin S2^pep, dilution by decreasing the concentration of dimer skeletal muscle myosin S2^pep was performed and further was treated with different concentrations of anti-S2 peptides (FIG. 28A, 28B). Different concentrations of dimer skeletal muscle myosin S2^pep was used with anti-S2 peptides.

In data set [3] the target is T1, Rabbit skeletal myosin (rabbit).
T1 construct: mature; also called rabbit whole skeletal myosin; rabbit skeletal myosin S2
Put plainly: 'previously calculated Kd values, concentrations at which half of myosin is saturated'; method and source of the myosin not stated.

Data set [4] deals with B4. Put plainly: competitive ELISA (FIG. 44); differs from 6 nM at paragraph 385. On the procedure: (§2) The assay began with coating 96 well microtiter plate with rabbit skeletal myosin molecule overnight. […] After incubation at room temperature for an hour, the unbound protein complexes were washed with PBS and blocking buffer. Enzyme conjugated secondary antibody were added on to the wells and allowed conjugate for an hour at room temperature. After washing the wells with detergent buffer, color developing BCIP substrate were added on to the wells. Images of the color developed in the wells were captured and analyzed in Image J.
(In an ELISA, binding on a coated surface is turned into a signal by an enzyme label.)

Data set [5] addresses B4. As to the kind of experiment: FRET donor lifetime of labelled S2 peptide dimer titrated with destabilizer.
Text: as §1
During FRET assay, cardiac muscle myosin S2^pep was treated with increasing concentrations of anti-S2 peptides. […] Dilution to decrease the concentration of dimer cardiac muscle myosin S2^pep was performed to measure binding affinity of coiled-coil peptide and in turn to measure minimal concentration for stable dimer formation (FIG. 25A). […] (FIG. 25B)

Data set [6] has as its target B7. As to the kind of experiment: cell-based or functional assay.
Data set [7] has as its target B2. As to the kind of experiment: cell-based or functional assay.
Data set [8] has as its target B3. Put plainly: cell-based or functional assay.
Data set [9] concerns the target B4. Put plainly: competitive ELISA (curve fit of OD, FIG. 44B); antibody 1:64, 62.5 nM human cardiac S2 peptide, rabbit skeletal myosin coated; the sentence does not name the target. On the procedure: as §2
Data set [10] concerns the target B2. Put plainly: cell-based or functional assay.
Data set [11] has as its target T1, Rabbit skeletal myosin. Put plainly: cell-based or functional assay.
In data set [12] the target is B3. As to the kind of experiment: cell-based or functional assay.
Data set [13] deals with the molecule itself. As to the kind of experiment: cell-based or functional assay.
Data set [14] concerns the molecule itself. As to the kind of experiment: FRET, dimer dissociation (control); text value differs from Table 3.
Data set [15] deals with the molecule itself. As to the kind of experiment: FRET donor lifetime on dilution of donor- and acceptor-labelled peptide; dissociation of the S2 peptide coiled-coil dimer (control).
Data set [16] addresses T1, Rabbit skeletal myosin. As to the kind of experiment: 'previously calculated Kd values'; row stands under the IC-50 head for stabilizers, read as labeled stabilizer; method and source of the myosin not stated.

Primed or numbered codes have the meaning given here. Where no end group is shown, it is not given here. FITC′ = fluorescein isothiocyanate

T1 sequence (Q28641 whole entry, chain 1 of 3): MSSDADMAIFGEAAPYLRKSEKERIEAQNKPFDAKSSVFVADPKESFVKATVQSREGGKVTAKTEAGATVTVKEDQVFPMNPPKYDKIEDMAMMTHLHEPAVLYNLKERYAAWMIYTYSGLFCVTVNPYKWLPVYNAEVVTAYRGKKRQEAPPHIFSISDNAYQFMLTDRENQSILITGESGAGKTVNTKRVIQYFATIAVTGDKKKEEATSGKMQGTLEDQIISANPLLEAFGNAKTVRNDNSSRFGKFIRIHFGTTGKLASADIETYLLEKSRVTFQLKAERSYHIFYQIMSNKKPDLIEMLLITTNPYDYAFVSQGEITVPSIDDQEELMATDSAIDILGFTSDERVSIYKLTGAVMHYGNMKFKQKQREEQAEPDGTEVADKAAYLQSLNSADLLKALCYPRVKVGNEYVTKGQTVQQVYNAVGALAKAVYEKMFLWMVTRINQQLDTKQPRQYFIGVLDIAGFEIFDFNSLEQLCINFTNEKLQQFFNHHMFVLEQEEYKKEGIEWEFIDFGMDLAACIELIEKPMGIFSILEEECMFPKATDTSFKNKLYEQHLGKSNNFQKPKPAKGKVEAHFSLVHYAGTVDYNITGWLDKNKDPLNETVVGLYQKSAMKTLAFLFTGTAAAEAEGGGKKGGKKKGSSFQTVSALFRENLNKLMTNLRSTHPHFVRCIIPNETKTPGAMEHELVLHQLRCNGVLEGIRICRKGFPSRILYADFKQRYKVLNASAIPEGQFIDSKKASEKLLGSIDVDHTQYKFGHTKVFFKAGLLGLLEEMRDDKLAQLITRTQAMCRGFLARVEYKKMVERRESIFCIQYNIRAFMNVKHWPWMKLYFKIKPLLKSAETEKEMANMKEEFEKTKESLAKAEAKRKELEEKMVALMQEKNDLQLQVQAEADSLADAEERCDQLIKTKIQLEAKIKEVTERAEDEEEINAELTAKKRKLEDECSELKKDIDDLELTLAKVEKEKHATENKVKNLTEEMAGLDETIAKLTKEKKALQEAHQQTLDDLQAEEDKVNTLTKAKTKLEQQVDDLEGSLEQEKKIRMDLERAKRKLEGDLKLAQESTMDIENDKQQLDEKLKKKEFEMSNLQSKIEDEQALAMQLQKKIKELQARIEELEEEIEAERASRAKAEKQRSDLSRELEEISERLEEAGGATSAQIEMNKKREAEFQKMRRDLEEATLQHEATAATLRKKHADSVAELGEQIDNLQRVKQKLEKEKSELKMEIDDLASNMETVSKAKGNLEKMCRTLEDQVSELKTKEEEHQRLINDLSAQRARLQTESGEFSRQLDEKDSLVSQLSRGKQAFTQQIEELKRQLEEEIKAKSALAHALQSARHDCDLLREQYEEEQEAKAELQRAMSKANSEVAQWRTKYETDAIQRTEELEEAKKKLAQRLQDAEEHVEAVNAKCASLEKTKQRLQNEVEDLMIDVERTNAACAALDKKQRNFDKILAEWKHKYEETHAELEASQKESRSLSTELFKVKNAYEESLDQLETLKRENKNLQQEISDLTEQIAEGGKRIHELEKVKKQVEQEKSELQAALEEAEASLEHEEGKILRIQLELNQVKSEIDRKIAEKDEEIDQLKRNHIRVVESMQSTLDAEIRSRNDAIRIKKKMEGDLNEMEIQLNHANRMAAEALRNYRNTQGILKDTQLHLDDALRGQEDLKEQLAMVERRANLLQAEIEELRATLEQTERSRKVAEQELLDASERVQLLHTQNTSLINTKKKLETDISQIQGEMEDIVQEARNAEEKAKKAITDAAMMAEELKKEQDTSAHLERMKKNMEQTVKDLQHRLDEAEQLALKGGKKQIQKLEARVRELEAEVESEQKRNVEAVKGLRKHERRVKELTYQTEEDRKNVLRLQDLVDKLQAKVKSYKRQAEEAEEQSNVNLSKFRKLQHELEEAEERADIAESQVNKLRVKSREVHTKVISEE
T1 sequence (P02602 2-192, chain 2 of 3, further chain): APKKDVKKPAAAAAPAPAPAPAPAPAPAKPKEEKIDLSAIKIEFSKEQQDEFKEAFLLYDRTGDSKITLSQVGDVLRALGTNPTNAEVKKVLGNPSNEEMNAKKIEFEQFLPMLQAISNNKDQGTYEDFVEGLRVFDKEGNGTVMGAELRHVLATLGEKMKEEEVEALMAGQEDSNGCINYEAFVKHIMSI
T1 sequence (P02608 2-170, chain 3 of 3, further chain): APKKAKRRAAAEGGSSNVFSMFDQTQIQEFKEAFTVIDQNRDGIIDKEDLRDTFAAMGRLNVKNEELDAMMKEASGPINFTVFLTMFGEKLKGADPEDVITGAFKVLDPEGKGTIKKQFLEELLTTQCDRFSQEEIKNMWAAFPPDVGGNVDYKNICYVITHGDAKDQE

B1: Destabilizer peptide (peptide)
peptide: EMNERLEDEREMKAELTAK
notes: also called destabilizing peptide; unlabeled destabilizer
Turning to B1, the binding result in data set [1] is “no binding”. Moreover, the Kd was 469 nM in [2]; 75 nM in the data set with Rabbit skeletal myosin [3]; 1 nM in data set [4]; 1330 nM in [5]; 6 nM in data set [9]. Further, the “GFS: force to uncoil the S2 peptide dimer to a length of 10 nm, with destabilizer” value was 0.451 pN in data set [6], 0.436 pN in data set [7] and 0.184 pN in data set [8]. The figures for the “GFS: fold decrease of the force required to uncoil the coiled coil against control” value in data set [10] and in data set [12] were 1.98 times and 2.45 times, respectively. Besides, the “GFS: fold less force required to uncoil myosin in presence of destabilizer against control” value with Rabbit skeletal myosin [11] came out at 1.6 times.

As for B2, the “GFS: force to uncoil the S2 peptide dimer to a length of 10 nm, no anti-S2 peptide (control)” value (“GFS: force … no anti-S2 peptide (control)” below) in data set [13] turned out to be 0.863 pN.

In the case of B3, the “GFS: force … no anti-S2 peptide (control)” value in data set [13] came to 0.45 pN.

On to B4, for which the Kd came to 308 nM in data set [14] and 303 nM in data set [15].

B5: Human β-cardiac mutant myosin S2 peptide (E924K), 19 residues (peptide)
peptide: EMNKRLEDEEEMNAELTAK
modifications: also: in FRET: FITC on N-terminus of one monomer, terbium-DTPA-cytosine chelate on C-terminal Lys of the other
notes: E924K already in the entry; also called Cardiac Myosin S2 Mutant, E924K
Take B5: the figures for the dissociation constant (Kd) in data set [14] and in data set [15] were 2540 nM and 942 nM, respectively.

In turn, B6 gave a Kd in data set [15] of 302 nM.

B7: the “GFS: force … no anti-S2 peptide (control)” value in [13] is 0.461 pN.

B8: TRITC (tetramethylrhodamine) labeled stabilizing peptide (peptide)
peptide: KKKKKKKKFKAKKKKKK
modifications: also: TRITC label, site not given here
notes: also called labeled Stabilizer; fluorescently labelled stabilizer peptide
For B8, the dissociation constant (Kd) in the data set with Rabbit skeletal myosin [16] is 330 nM.

In the case of B9, the Kd in [15] is 341 nM.

B10: Human β-cardiac mutant myosin S2 peptide (E930del), 18 residues (peptide)
peptide: EMNERLEDEEMNAELTAK
modifications: also: in FRET: FITC on N-terminus of one monomer, terbium-DTPA-cytosine chelate on C-terminal Lys of the other
notes: Deletion of glutamate 930 already in the entry; also called Edel930; ΔE930
As for B10, the dissociation constant Kd in [14] was 3240 nM; in data set [15] it was 1110 nM.

B11: FITC (fluorescein isothiocyanate) labeled destabilizing peptide (peptide)
peptide: {FITC′}-EMNERLEDEREMKAELTAK
notes: also called labeled Destabilizer; fluorescein labeled destabilizer peptide
Regarding B11, the Kd with Rabbit skeletal myosin [3] is 176 nM.

As a reminder, the Kd is the equilibrium constant for the complex coming apart.
